Assays:
[1] = biological target: T1, CD99 epitope peptide antigen (15 amino acid sequence, SEQ ID NO: 1) (human); assay: BLI, OctetRED 384, SA biosensor
T1 construct: It was used with an SA (streptavidin) biosensor
T1 peptide: DGENDDPRPPNPPKC
Method: The affinity of one embodiment of the disclosed anti-CD99 antibody was tested against the CD99 epitope. Specifically, the epitope was a peptide antigen and the anti-CD99 antibody was the embodiment of 10D1-1 human IgG4/light chain1. As shown in FIG. 20. affinity was analyzed using an SA biosensor, and association and dissociation constants were monitored using OctetRED 384. […] 400 pM, 350 pM, 300 pM, 250 pM, 200 pM, 150 pM, 100 pM, 90 pM, 80 pM, 70 pM. 60 pM, 50 pM, 40 pM, 30 pM, 20 pM, or 10 pM, and less than about 1 pM, 10 pM, 50 pM, 100 pM, 200 pM, 300 pM, 400 pM, 500 pM, 600 pM. 700 pM, 800 pM, or900 pM.

human CD99 = biological target: T2, human CD99 (human, UniProt P14209 23-185); assay: flow cytometry on DIPG cells: pre-incubation with 10D1-CD99 antibody, then detection of CD99 with the commercial 0662 CD99 antibody (the competitor)
T2 construct: whole, on cells; Endogenous CD99 on patient-derived DIPG cells (flow cytometry) and DIPG tumor tissue sections (IHC); also called MIC2/CD99; cell surface CD99 protein
T2 sequence (looked up): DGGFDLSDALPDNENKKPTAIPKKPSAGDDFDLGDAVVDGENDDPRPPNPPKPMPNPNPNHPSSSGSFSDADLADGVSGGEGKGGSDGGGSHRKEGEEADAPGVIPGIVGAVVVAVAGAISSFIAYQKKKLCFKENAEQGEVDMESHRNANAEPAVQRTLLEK
Method: The engagement/binding of the presently disclosed 10D1-CD99 antibody to the human CD99 epitope was tested.

Kd [1]: 436 pM | koff [1]: 0.000744 s⁻¹ | kon [1]: ~1.71e+06 M⁻¹ s⁻¹ | binding result (human CD99): binds
B1: 10D1-CD99 antibody (antibody, V domains shown)
VH: EVQLQQSGPELVKPGASVKISCKASGYSFTGYYMHWVKQSHVKSLEWIGRINPYTGATTYNQIFKDKATLTLDKSSSTAYMELHSLTSEDSAIFYCARYYYGNNYNVYLDYWGQGTTLTVSS
VL: DIQLTQTTSSLSASLGDRVTISCSASQGISNYLSWYQQKPDGTFKLLIYYTSTLHSGVPSRFSGSGSGTDYSLTISNLEPEDIATYYCQQYSNLPWTFGGGTRLEIK
notes: also called rh10D1 anti-CD99 antibody; rh10D1-CD99
